Starred links: 1 amine or outer side, 2 acyl side, 3 side chain; linkers in the order of their positions; H or OH if unused. Positions of bridges follow the written chain, without caps; N, C: chain ends. Non-standard residues stand in square brackets, D forms with d. Primed or numbered codes have the meaning given here. PyrS2″ = (S)-3-amino-1-((pent-4-en-1-yloxy)carbonyl)pyrrolidine-3-carboxylic acid (stapling residue), C=CCCCOC(=O)N1CC[C@@](N[*:1])(C(=O)[*:2])C1; B5(5) = 2,2-bis(4-pentenyl)glycine, 2-amino-2-(pent-4-en-1-yl)hept-6-enoic acid (stitching residue), C=CCCCC(CCCC=C)(N[*:1])C(=O)[*:2]; B5(3) = 2,2-bis(4-pentenyl)glycine (stitching residue), C=CCCCC(CCCC=C)(N[*:1])C(=O)[*:2]; B5 = 2-amino-2-(pent-4-en-1-yl)hept-6-enoic acid, C=CCCCC(CCCC=C)(N[*:1])C(=O)[*:2]; Bta = N[C@@H](Cc1csc2ccccc12)C(=O)O; αAllylPro = C=CC[C@@]1(C(=O)O)CCCN1; tBuAla = CC(C)(C)C[C@H](N)C(=O)O; 3Thi = N[C@@H](Cc1ccsc1)C(=O)O; S8 = C=CCCCCCC[C@](C)(N)C(=O)O; hSer = N[C@@H](CCO)C(=O)O
T1: B-cat-Halo (beta-catenin HaloTag NanoBRET construct expressed in HEK293 cells) (UniProt P35222 1-781, HaloTag NanoBRET 618 Ligand bound to the HaloTag)
T1 sequence (looked up): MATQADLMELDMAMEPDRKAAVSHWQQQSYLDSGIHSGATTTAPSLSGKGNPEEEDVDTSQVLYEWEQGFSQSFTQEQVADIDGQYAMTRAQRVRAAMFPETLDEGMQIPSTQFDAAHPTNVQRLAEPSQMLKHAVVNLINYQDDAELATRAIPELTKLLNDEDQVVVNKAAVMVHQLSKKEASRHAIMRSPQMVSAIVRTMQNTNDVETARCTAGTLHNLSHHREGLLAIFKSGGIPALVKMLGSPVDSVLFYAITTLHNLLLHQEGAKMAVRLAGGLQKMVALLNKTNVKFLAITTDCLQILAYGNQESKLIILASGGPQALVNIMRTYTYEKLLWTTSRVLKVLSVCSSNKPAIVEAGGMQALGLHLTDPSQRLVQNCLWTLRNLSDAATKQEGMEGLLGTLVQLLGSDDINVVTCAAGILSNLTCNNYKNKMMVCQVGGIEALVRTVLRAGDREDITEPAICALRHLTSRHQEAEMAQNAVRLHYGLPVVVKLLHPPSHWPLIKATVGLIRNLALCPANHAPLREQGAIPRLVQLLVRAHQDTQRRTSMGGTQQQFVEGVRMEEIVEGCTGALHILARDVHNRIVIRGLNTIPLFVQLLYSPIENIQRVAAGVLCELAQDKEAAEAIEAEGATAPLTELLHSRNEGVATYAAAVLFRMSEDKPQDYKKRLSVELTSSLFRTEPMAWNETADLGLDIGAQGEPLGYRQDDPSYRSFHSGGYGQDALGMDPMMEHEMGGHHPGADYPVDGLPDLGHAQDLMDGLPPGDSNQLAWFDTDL

T2: full-length beta-Catenin (Uniprot ID P35222) (Homo sapiens (Human), UniProt P35222 1-781)
T2 construct: Any tags on the recombinant protein are not described for the FP assay; also called bCat; B-Catenin
T2 sequence: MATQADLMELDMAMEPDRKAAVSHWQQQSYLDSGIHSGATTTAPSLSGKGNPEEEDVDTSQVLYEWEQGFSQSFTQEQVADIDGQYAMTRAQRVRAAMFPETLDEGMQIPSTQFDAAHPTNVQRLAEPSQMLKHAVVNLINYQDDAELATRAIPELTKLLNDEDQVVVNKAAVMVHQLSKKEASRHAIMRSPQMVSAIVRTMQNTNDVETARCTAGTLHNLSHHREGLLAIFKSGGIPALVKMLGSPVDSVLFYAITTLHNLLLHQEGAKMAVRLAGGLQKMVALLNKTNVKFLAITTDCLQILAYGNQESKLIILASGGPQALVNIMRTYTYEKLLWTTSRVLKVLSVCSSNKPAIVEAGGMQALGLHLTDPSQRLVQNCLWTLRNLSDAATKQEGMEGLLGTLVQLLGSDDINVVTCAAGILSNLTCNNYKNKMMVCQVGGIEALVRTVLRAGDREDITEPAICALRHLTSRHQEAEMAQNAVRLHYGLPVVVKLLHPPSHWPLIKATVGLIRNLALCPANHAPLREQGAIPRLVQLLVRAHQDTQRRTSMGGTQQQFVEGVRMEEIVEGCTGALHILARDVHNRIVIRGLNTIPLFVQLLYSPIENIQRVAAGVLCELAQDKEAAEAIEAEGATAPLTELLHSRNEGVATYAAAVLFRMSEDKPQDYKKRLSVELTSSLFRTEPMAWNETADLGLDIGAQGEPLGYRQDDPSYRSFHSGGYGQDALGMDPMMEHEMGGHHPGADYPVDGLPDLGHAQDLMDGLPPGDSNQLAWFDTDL

T3: B-cat-Halo (beta-catenin HaloTag construct expressed in HEK293 cells) (UniProt P35222 1-781)
T3 sequence (looked up): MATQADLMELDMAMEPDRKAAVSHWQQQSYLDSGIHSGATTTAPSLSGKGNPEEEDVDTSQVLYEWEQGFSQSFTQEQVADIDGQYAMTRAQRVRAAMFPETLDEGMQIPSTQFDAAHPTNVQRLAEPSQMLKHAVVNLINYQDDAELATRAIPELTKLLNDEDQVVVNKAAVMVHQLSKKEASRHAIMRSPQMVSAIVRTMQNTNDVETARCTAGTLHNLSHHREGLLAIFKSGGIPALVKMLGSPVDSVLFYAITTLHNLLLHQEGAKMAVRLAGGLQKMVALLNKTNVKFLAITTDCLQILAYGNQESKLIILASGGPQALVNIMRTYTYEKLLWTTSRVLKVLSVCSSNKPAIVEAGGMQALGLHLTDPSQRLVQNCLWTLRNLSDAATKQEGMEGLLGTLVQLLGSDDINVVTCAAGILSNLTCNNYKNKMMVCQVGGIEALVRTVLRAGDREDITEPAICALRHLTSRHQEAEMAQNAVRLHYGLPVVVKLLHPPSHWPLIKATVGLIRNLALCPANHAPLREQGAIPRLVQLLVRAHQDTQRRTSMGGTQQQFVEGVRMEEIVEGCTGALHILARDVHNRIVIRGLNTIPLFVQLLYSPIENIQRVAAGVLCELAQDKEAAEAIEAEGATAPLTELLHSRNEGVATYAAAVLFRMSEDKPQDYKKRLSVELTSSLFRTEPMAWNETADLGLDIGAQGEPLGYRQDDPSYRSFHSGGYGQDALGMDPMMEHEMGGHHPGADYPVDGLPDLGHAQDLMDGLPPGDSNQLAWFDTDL

T4: beta-catenin in DLD1 TCF/LEF luciferase reporter cells (UniProt P35222 1-781)
T4 sequence (looked up): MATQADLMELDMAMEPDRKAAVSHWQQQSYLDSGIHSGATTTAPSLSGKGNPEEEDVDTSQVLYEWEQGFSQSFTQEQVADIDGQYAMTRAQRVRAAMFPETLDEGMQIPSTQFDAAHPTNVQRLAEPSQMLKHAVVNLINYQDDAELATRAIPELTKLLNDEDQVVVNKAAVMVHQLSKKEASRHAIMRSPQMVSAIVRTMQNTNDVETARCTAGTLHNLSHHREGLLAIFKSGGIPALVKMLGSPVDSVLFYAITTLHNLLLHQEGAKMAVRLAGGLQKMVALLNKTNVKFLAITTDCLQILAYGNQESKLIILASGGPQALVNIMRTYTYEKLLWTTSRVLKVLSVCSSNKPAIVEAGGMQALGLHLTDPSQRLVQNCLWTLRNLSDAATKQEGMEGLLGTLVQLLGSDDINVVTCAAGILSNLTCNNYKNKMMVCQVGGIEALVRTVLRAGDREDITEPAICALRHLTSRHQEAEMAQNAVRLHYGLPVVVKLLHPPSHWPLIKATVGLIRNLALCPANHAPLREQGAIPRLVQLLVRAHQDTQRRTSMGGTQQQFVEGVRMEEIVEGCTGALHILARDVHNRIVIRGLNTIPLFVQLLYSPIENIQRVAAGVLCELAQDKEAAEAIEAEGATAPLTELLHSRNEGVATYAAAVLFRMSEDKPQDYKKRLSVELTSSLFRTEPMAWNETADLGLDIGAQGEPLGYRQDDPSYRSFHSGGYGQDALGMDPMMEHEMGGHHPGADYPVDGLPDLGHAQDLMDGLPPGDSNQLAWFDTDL


Assays:
[1] = target: T1, B-cat-Halo (beta-catenin HaloTag …); assay: cell-based or functional assay
[2] = target: T2, full-length beta-Catenin (Uniprot ID …); assay: fluorescence polarization competition; displacement of 5FAM-TCF4(10-53) from full-length beta-catenin
Procedure, shortened: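 Fluorescence polarization was read in duplicate after the plate sat 60 minutes at 20° C. shielded from light. Values come from fitting to a 1:1 binding model with hill slope.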

[3] = target: T3, B-cat-Halo (beta-catenin HaloTag …); assay: cell-based or functional assay
[4] = target: T4, beta-catenin in DLD1 TCF/LEF luciferase …; assay: cell-based or functional assay

Row | Binder | NanoBRET Abs IC50 [1] [µM] | IC50 [2] [µM] | NanoBRET Abs IC50 [3] [µM] | DLD1 4% Abs IC50 [4] [µM]
1 | Ac-[αAllylPro]D[tBuAla][B5]DDAAFN[PyrS2″][3Thi][Bta]T-NH2 (staple 1-4, 4-11) [I-814] | – | – | 18.9 | 16.5
2 | Ac-[αAllylPro]D[tBuAla][B5(3)]DDAAF[hSer][PyrS2″][3Thi][Bta]Q-NH2 (staple 1-4, 4-11) [I-803] | – | – | 9.6 | 9

More lines, now with the values ahead:

Row | NanoBRET Abs IC50 [1] [µM] | IC50 [2] [µM] | NanoBRET Abs IC50 [3] [µM] | DLD1 4% Abs IC50 [4] [µM] | Binder
3 | 30.3 | 0.036 | – | – | Ac-[αAllylPro]DS[B5(5)]DEAAFQ[S8]F[Bta]Q-NH2 (staple 1-4, 4-11, Stapled peptide composition; It has the same description as I-1526 and is the staple isomer composition of the later eluting HPLC peak) [I-1527: Ac-PL3-Asp-Ser-B5-Asp-Glu-Ala-Ala-Phe-Gln-S8-Phe-BztA-Gln-NH2]
4 | – | – | 15.4 | 10.3 | Ac-[αAllylPro]D[tBuAla][B5]DDAAFN[PyrS2″][3Thi][Bta]S-NH2 (staple 1-4, 4-11) [I-815]
